Measurements published in patent publication US12692305.

Experiments:
[1] = molecular target: PD-1 on in vitro activated primary human T cells (human) (UniProt Q15116); assay: flow cytometry, residual staining by detection antibody on Ki-67+ CD4+ activated T cells in the presence of competitors RV29 and RV32 (IL-15 precomplexed); average pooled over both constructs and 100, 10 and 1 nM
[2] = molecular target: PD-1 on in vitro activated primary human T cells (human) (UniProt Q15116); assay: flow cytometry, detection antibody on Ki-67+ CD4+ activated T cells after 4 d with 10 nM RV2 precomplexed with IL-15
[3] = molecular target: PD-1 on in vitro activated primary human T cells (human) (UniProt Q15116); assay: flow cytometry, detection antibody on Ki-67+ CD4+ activated T cells, media only
[4] = molecular target: PD-1 on in vitro activated primary human T cells (human) (UniProt Q15116); assay: flow cytometry, detection antibody on Ki-67+ CD8+ activated T cells after 4 d with 100 nM IL-15 alone
[5] = molecular target: PD-1 on in vitro activated primary human T cells (human) (UniProt Q15116); assay: flow cytometry, detection antibody on Ki-67+ CD8+ activated T cells; average pooled over non-PD-1-binding test samples and concentrations
[6] = molecular target: PD-1 on in vitro activated primary human T cells (human) (UniProt Q15116); assay: flow cytometry, detection antibody on Ki-67+ CD4+ activated T cells after 4 d with 10 nM RV1 precomplexed with IL-15
[7] = molecular target: PD-1 on in vitro activated primary human T cells (human) (UniProt Q15116); assay: flow cytometry, detection antibody on Ki-67+ CD8+ activated T cells after 4 d with 10 nM IL-15 alone
[8] = molecular target: PD-1 on in vitro activated primary human T cells (human) (UniProt Q15116); assay: flow cytometry, detection antibody on Ki-67+ CD8+ activated T cells after 4 d with 100 nM IL-15Rα-Fc precomplexed with IL-15
[9] = molecular target: PD-1 on in vitro activated primary human T cells (human) (UniProt Q15116); assay: flow cytometry, detection antibody on Ki-67+ CD8+ activated T cells after 4 d with 1 nM RV2 precomplexed with IL-15
[10] = molecular target: PD-1 on in vitro activated primary human T cells (human) (UniProt Q15116); assay: flow cytometry, detection antibody on Ki-67+ CD4+ activated T cells; average pooled over non-PD-1-binding test samples and concentrations
[11] = molecular target: PD-1 on in vitro activated primary human T cells (human) (UniProt Q15116); assay: flow cytometry, detection antibody on Ki-67+ CD8+ activated T cells after 4 d with 10 nM RV1 precomplexed with IL-15
[12] = molecular target: PD-1 on in vitro activated primary human T cells (human) (UniProt Q15116); assay: flow cytometry, detection antibody on Ki-67+ CD8+ activated T cells after 4 d with 1 nM RV1 precomplexed with IL-15
[13] = molecular target: PD-1 on in vitro activated primary human T cells (human) (UniProt Q15116); assay: flow cytometry, detection antibody on Ki-67+ CD4+ activated T cells after 4 d with 1 nM IL-15Rα-Fc precomplexed with IL-15
[14] = molecular target: PD-1 on in vitro activated primary human T cells (human) (UniProt Q15116); assay: flow cytometry, detection antibody on Ki-67+ CD4+ activated T cells after 4 d with 10 nM IL-15Rα-Fc precomplexed with IL-15
[15] = molecular target: PD-1 on in vitro activated primary human T cells (human) (UniProt Q15116); assay: flow cytometry, detection antibody on Ki-67+ CD4+ activated T cells after 4 d with 100 nM IL-15Rα-Fc precomplexed with IL-15
[16] = molecular target: PD-1 on in vitro activated primary human T cells (human) (UniProt Q15116); assay: flow cytometry, detection antibody on Ki-67+ CD8+ activated T cells after 4 d with 100 nM RV2 precomplexed with IL-15
[17] = molecular target: PD-1 on in vitro activated primary human T cells (human) (UniProt Q15116); assay: flow cytometry, detection antibody on Ki-67+ CD8+ activated T cells, media only
[18] = molecular target: PD-1 on in vitro activated primary human T cells (human) (UniProt Q15116); assay: flow cytometry, detection antibody on Ki-67+ CD8+ activated T cells after 4 d with 100 nM RV1 precomplexed with IL-15
[19] = molecular target: PD-1 on in vitro activated primary human T cells (human) (UniProt Q15116); assay: flow cytometry, detection antibody on Ki-67+ CD4+ activated T cells after 4 d with 100 nM IL-15 alone
[20] = molecular target: PD-1 on in vitro activated primary human T cells (human) (UniProt Q15116); assay: flow cytometry, detection antibody on Ki-67+ CD4+ activated T cells after 4 d with 10 nM IL-15 alone
[21] = molecular target: PD-1 on in vitro activated primary human T cells (human) (UniProt Q15116); assay: flow cytometry, detection antibody on Ki-67+ CD8+ activated T cells after 4 d with 1 nM IL-15Rα-Fc precomplexed with IL-15
[22] = molecular target: PD-1 on in vitro activated primary human T cells (human) (UniProt Q15116); assay: flow cytometry, detection antibody on Ki-67+ CD4+ activated T cells after 4 d with 100 nM RV2 precomplexed with IL-15
[23] = molecular target: PD-1 on in vitro activated primary human T cells (human) (UniProt Q15116); assay: flow cytometry, residual staining by detection antibody on Ki-67+ CD8+ activated T cells in the presence of competitors RV29 and RV32 (IL-15 precomplexed); average pooled over both constructs and 100, 10 and 1 nM
[24] = molecular target: PD-1 on in vitro activated primary human T cells (human) (UniProt Q15116); assay: flow cytometry, detection antibody on Ki-67+ CD4+ activated T cells after 4 d with 1 nM RV2 precomplexed with IL-15
[25] = molecular target: PD-1 on in vitro activated primary human T cells (human) (UniProt Q15116); assay: flow cytometry, detection antibody on Ki-67+ CD8+ activated T cells after 4 d with 10 nM RV2 precomplexed with IL-15
[26] = molecular target: PD-1 on in vitro activated primary human T cells (human) (UniProt Q15116); assay: flow cytometry, detection antibody on Ki-67+ CD4+ activated T cells after 4 d with 1 nM IL-15 alone
[27] = molecular target: PD-1 on in vitro activated primary human T cells (human) (UniProt Q15116); assay: flow cytometry, detection antibody on Ki-67+ CD8+ activated T cells after 4 d with 1 nM IL-15 alone
[28] = molecular target: PD-1 on in vitro activated primary human T cells (human) (UniProt Q15116); assay: flow cytometry, detection antibody on Ki-67+ CD4+ activated T cells after 4 d with 100 nM RV1 precomplexed with IL-15
[29] = molecular target: PD-1 on in vitro activated primary human T cells (human) (UniProt Q15116); assay: flow cytometry, detection antibody on Ki-67+ CD4+ activated T cells after 4 d with 1 nM RV1 precomplexed with IL-15
[30] = molecular target: PD-1 on in vitro activated primary human T cells (human) (UniProt Q15116); assay: flow cytometry, detection antibody on Ki-67+ CD8+ activated T cells after 4 d with 10 nM IL-15Rα-Fc precomplexed with IL-15

Sequence of PD-1 on in vitro activated primary human T cells (human) (Q15116 25-288): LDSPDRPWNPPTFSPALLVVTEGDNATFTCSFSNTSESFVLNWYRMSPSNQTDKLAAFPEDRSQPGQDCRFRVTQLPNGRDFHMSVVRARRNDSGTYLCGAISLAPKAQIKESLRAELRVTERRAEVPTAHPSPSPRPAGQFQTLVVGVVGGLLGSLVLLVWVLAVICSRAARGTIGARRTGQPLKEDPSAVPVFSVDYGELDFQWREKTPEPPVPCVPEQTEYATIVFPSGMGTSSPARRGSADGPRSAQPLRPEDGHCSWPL

MFI of PD-1 staining (average) [1]: 3090 MFI
MFI of PD-1 staining [2]: 5070 MFI
MFI of PD-1 staining [3]: 4020 MFI
MFI of PD-1 staining [4]: 3220 MFI
MFI of PD-1 staining (average) [5]: 2190 MFI
MFI of PD-1 staining [6]: 4620 MFI
MFI of PD-1 staining [7]: 3190 MFI
MFI of PD-1 staining [8]: 2110 MFI
MFI of PD-1 staining [9]: 1920 MFI
MFI of PD-1 staining (average) [10]: 4830 MFI
MFI of PD-1 staining [11]: 1890 MFI
MFI of PD-1 staining [12]: 1870 MFI
MFI of PD-1 staining [13]: 4280 MFI
MFI of PD-1 staining [14]: 4480 MFI
MFI of PD-1 staining [15]: 4380 MFI
MFI of PD-1 staining [16]: 2820 MFI
MFI of PD-1 staining [17]: 2250 MFI
MFI of PD-1 staining [18]: 2370 MFI
MFI of PD-1 staining [19]: 6550 MFI
MFI of PD-1 staining [20]: 6440 MFI
MFI of PD-1 staining [21]: 1690 MFI
MFI of PD-1 staining [22]: 5840 MFI
MFI of PD-1 staining (average) [23]: 1460 MFI
MFI of PD-1 staining [24]: 4200 MFI
MFI of PD-1 staining [25]: 2020 MFI
MFI of PD-1 staining [26]: 4870 MFI
MFI of PD-1 staining [27]: 2050 MFI
MFI of PD-1 staining [28]: 4830 MFI
MFI of PD-1 staining [29]: 4100 MFI
MFI of PD-1 staining [30]: 2120 MFI
Substance: PD-1 detection antibody (clone EH12.21H7)
